Laboratory results as given in patent US20240228648A1 (JIANGSU KANION PHARMACEUTICAL, published 2024).

Experiments:
[1] = biological target: T1, CD38 on the surface of Daudi cells (human, UniProt P28907 1-300); test: flow cytometry on Daudi cells, anti-human IgG-Alexa647, fit in GraphPad Prism
T1 construct: Endogenous CD38 of human B-cell lymphoma Daudi cells; also called naturally conformational CD38 on cell surface; CD38 expressed on Daudi cells
Description: Daudi cells were washed twice with PBS and incubated for 1 hour on ice with serially diluted antibodies in FACS buffer (PBS containing 2% FBS) as indicated in table 2. Cells were washed three times with PBS and incubated with 1:200 diluted anti-human IgG-Alexa647 in FACS buffer for 30 min at 4° C. in darkness. After three times wash with PBS, cells were analyzed using flowcytometer.

[2] = biological target: T1, CD38 on the surface of Daudi cells; test: cell-based or functional assay
[3] = biological target: T2, recombinant biotinylated CD38-avi protein (extracellular domain of human CD38) (human, UniProt P28907 43-300, biotinylated (avi tag)); test: capture ELISA: antibody captured by anti-human Fc, biotinylated CD38-avi 0.5 ug/ml, fit in GraphPad Prism
T2 construct: Bought from ACRO biosystems; also called CD38 recombinant protein; not shown: avi tag
Description: After 6 washes, plate was incubated with 1:1000 diluted streptavidin-HRP (BD Bioscience) in PBS™ at RT for 30 min.

Row | Binder | Kd [1] | CDC IC50 on Daudi cells (ratio of live P1 cells, 7AAD flow cytometry) [2] | maximal ADCC activity on Daudi cells relative to Darzalex (Jurkat effector, luciferase) [2] | Kd [3] | ADCC IC50 on Daudi cells relative to Darzalex (Jurkat effector, luciferase) [2]
1 | IgG418 full antibody (antibody, V domains shown, also called IgG418 WT; IgG418-WT) VH: QVQLQQSGPGLVKPSQTLSLTCAISGGSVSSNSAAWNWIRQSPSRGLEWLGRTYYRSKWYNDYAVSVKSRITINPDTSKNQFSLQLNSVTPEDTAVYYCARDALAAAGTYGYYYYYGMDVWGQGTMVTVSS VL: QSALTQPASVSGSPGQSITISCTGTSSDVGGYNYVSWYQQHPGKAPKLVIYEGTQRPSGVSSRFSGSKSGNTASLTISGLQAEDEADYYCSSYTSSSFYVFGTGTKLTVLG | 3.1 nM | 9.8 nM | 1.4 fold | 0.082 nM | 
2 | afucosylated IgG418 (antibody, V domains shown, afucosylated glycan (produced in FUT8 knockout CHO-K1 cells)) VH: QVQLQQSGPGLVKPSQTLSLTCAISGGSVSSNSAAWNWIRQSPSRGLEWLGRTYYRSKWYNDYAVSVKSRITINPDTSKNQFSLQLNSVTPEDTAVYYCARDALAAAGTYGYYYYYGMDVWGQGTMVTVSS VL: QSALTQPASVSGSPGQSITISCTGTSSDVGGYNYVSWYQQHPGKAPKLVIYEGTQRPSGVSSRFSGSKSGNTASLTISGLQAEDEADYYCSSYTSSSFYVFGTGTKLTVLG |  |  | 1.6 fold |  | ~10 fold
